Test results as given in patent US20260116996A1 (REGENTS OF THE UNIVERSITY OF MINNESOTA, published 2026).
Values belong to the binder of their own block, whether it stands above or below them.

What was measured:
[1] = target: T1, human serpinB3 (human, UniProt P29508 1-390); assay: ELISA cross-reactivity test / Luminex bead assay (FIG. 25)
T1 construct: Luminex antigen captured from a 293 cell lysate; not shown: V5-His tag of the pcDNA3.1 Directional V5-His-TOPO vector
T1 sequence (looked up): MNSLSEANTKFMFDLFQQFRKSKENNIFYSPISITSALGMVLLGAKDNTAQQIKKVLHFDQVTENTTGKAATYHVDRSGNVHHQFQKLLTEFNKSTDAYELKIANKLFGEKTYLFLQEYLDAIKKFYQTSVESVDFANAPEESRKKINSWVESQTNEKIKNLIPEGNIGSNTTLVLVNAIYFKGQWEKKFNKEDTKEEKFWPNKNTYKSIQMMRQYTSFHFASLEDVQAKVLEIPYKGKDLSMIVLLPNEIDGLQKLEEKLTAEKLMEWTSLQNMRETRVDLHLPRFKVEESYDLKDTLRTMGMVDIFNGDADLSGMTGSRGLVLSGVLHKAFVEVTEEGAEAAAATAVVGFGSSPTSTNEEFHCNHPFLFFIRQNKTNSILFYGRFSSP
Method: (§1) Three recombinant human anti-serpinB13 antibodies were examined in the Luminex-based assay for binding to other clade B serpins, in order as indicated. The final concentration of each antibody was 1.0 μg/mL. The data are expressed as immunofluorescence intensity measured for binding to individual human serpin antigens after subtracting the background. The latter was determined as the average antibody binding to Luminex beads coated with Gfp and Scgn control antigens. Similar data were obtained for antigen binding of Fab fragments of these antibodies (data not shown).
(§2) Luminex assay. Luminex-based technology was used to measure serpinB13 AA in human samples. Initially, the Luminex beads were precoated with serpinB13, Gfp and Scgn, using precleared lysates of 293 cells that had been transfected with individual cDNAs. Biotinylated mouse anti-human K and 2 chain mAbs (BD Biosciences) (dilution 1:300) and streptavidin (Invitrogen) (dilution 1:200) were used as secondary reagents to measure human serum binding activity to individual antigens. The data were expressed as fluorescence intensity (F.I.) due to serum binding activity in the presence of beads precoated with serpinB13 and after subtracting the average F.I. due to serum binding activity in the presence of beads precoated with control proteins, Gfp and Scgn (e.g. F.I.^B13-[F.I.^GFP+F.I.^Segn]/2). The samples were evaluated based on the level of F.I. and the degree of inhibition of binding to serpin-B13 coated beads with soluble serpinB13 (2.5 μg/mL), compared with the bovine serum albumin (BSA). […] All samples were run blind on three independent occasions. Subjects with serum samples that produced a positive results three times were considered positive. Subjects with serum samples that produced a negative result on at least one occasion were considered negative.
(§3) To determine whether anti-serpin activity is specific, binding of three human recombinant antibodies to serpinB13 was examined for potential cross-reactivity with other clade B serpins.

[2] = target: T2, human serpinB10 (human, UniProt P48595 1-397); assay: as above
T2 construct: Luminex antigen captured from a 293 cell lysate; not shown: V5-His tag of the pcDNA3.1 Directional V5-His-TOPO vector
T2 sequence (looked up): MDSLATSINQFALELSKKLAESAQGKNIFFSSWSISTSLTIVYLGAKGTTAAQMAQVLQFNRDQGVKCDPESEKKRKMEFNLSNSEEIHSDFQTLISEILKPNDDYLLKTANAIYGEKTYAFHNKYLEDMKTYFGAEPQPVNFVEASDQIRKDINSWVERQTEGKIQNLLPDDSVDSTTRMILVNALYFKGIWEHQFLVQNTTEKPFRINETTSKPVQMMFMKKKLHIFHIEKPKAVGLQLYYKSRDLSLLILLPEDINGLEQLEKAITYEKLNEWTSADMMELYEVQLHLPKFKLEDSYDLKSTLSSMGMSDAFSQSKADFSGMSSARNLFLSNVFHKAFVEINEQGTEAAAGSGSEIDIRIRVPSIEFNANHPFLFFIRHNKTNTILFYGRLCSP
Method: as §1, §2, §3

[3] = target: T3, human serpinB5 (human, UniProt P36952 1-375); assay: Luminex bead assay, beads coated with human serpinB5, background (Gfp and Scgn beads) subtracted
T3 construct: Luminex antigen captured from a 293 cell lysate; not shown: V5-His tag of the pcDNA3.1 Directional V5-His-TOPO vector
T3 sequence (looked up): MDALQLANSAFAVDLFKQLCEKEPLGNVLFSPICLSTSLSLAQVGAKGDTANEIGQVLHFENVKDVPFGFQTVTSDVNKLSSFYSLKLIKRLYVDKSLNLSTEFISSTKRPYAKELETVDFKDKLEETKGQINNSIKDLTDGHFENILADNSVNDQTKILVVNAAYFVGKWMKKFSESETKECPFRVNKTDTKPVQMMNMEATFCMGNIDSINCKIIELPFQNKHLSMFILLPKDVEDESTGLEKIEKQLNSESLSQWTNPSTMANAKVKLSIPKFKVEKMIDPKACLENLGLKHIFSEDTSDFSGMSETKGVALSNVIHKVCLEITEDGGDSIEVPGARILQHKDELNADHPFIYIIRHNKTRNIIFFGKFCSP
Method: (§4) The latter was determined as the average antibody binding to Luminex beads coated with Gfp and Scgn control antigens. Similar data were obtained for antigen binding of Fab fragments of these antibodies (data not shown).
as §2
(§5) To determine whether anti-serpin activity is specific, binding of three human recombinant antibodies to serpinB13 was examined for potential cross-reactivity with other clade B serpins. Binding to the beads conjugated with Gfp and Scgn was used to subtract the background and the assay was developed using the same reagents as those described above for measuring serpinB13 AA in serum samples.

[4] = target: T4, human serpinB6 (human, UniProt P35237 1-376); assay: Luminex bead assay, beads coated with human serpinB6, background (Gfp and Scgn beads) subtracted
T4 construct: Luminex antigen captured from a 293 cell lysate; not shown: V5-His tag of the pcDNA3.1 Directional V5-His-TOPO vector
T4 sequence (looked up): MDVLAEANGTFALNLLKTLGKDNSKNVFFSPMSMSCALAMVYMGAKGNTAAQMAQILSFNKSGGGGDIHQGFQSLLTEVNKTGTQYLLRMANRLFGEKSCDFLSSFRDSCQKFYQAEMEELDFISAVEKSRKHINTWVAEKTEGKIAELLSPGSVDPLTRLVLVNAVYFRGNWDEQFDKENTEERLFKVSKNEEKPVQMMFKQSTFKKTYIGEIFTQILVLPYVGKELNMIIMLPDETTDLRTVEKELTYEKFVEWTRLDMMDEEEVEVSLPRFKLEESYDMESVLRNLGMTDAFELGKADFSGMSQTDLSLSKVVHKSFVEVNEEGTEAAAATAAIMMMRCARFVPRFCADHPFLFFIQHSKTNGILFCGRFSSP
Method: as §4, §2, §5

binding result [1]: no binding (tested: 1.0 µg/mL) | binding result [2]: no binding (tested: 1.0 µg/mL) | binding result [3]: no binding (tested: 1.0 µg/mL) | binding result [4]: no binding (tested: 1.0 µg/mL)
B1: recombinant fully human anti-serpinB13 antibody Clone 2 (antibody, human IgG1, kappa, V domains shown)
VH: QMQLVQSGGGVVRPGGSLRLSCAASGFTFDDYGMSWVRQAPGKGLEWVSGINWNGGSTGYADSVKGRFTISRDNAKNSLYLQMNSLRAEDTALYYCARESSMTTVTTYLLREVGVGLDFDYWGQGTLVTVSS
VL: ETTLTQSPGTLSLSPGERATLSCRASQTVSGSYLAWYQQKPGQPPRLLIYGASSRATGIPDRFSGSGSGTDFTLTISRLEPEDFAVYYCQDYGSSRTFGQGTKVELKR
notes: also called mAb2; CLONE2-H(m1) / CLONE2-L(m1)

binding result [1]: no binding (tested: 1.0 µg/mL) | binding result [2]: no binding (tested: 1.0 µg/mL) | binding result [3]: no binding (tested: 1.0 µg/mL) | binding result [4]: no binding (tested: 1.0 µg/mL)
B2: recombinant fully human anti-serpinB13 antibody Clone 1 (antibody, human IgG1, kappa, V domains shown)
VH: QVQLQESGGGVVQPGRSLRLSCAASGFTFSSYGMHWVRQAPGKGLEWVAVISYDGSNKYYADSVKGRFTISRDNSKNTLYLQMNSLRAEDTAVYYCARDLGAVIAVAGTSTPYNWFDPWGQGTLVTVSS
VL: DVVMTQSPLSLPVTPGEPASISCRSRQSLLHSNGHNYLGWYLQKPGQSPQLLIYLASIRASGIPDRFSGSGSGTDFTLKISRVEAEDVGVYYCMQALQTPYTFGQGTKLEIKR
notes: also called mAb1; mAbs1

binding result [1]: no binding (tested: 1.0 µg/mL) | binding result [2]: no binding (tested: 1.0 µg/mL) | binding result [3]: no binding (tested: 1.0 µg/mL) | binding result [4]: no binding (tested: 1.0 µg/mL)
B3: recombinant fully human anti-serpinB13 antibody Clone 3 (antibody, human IgG1, kappa, V domains shown)
VH: QVQLQQWGAGLLKPSETLSLTCAVYGGSFSGYYWSWIRQPPGKGLEWIGEINHSGSTNYNPSLKSRVTISVDTSKNQFSLKLSSVTAADTAVYYCARRYCSGGSCYLVGTGSELDYWGQGTLVTVSS
VL: DIQMTQSPSTLSASVGDRVTITCRASQSISSWLAWYQQKPGKAPKLLIYKASSLEIGVPSRFSGSGYGTEFTLTISSLQPDDFATYYCLQYSTHSTFGQGTRVEIKR
notes: also called mAb3; CLONE3-H(m1) / CLONE3-L(m1)
